Results reported in publication PMC6336717.

Tests used:
C3b (human) [1] = molecular target: C3b (human) (UniProt P01024); assay: ELISA; competition: C3b coated on the plate; FH 25 nM and WT Sbi-III-IV 1,000 nM with a concentration series of FHRs, FH19-20 or FHR-1 1-2; 1 h 37°C, PBST-2% BSA; FH bound detected with OX-24
C3b (human) [2] = molecular target: C3b (human) (UniProt P01024); assay: ELISA; competition: C3b coated on the plate (0.25 ug/well); FH 25 nM with a concentration series of FHRs, FH19-20 or FHR-1 1-2, no Sbi; 1 h 37°C, PBST-2% BSA; FH bound detected with OX-24

Sequence of factor H-related protein 1 (FHR-1), recombinant (Q03591 19-330): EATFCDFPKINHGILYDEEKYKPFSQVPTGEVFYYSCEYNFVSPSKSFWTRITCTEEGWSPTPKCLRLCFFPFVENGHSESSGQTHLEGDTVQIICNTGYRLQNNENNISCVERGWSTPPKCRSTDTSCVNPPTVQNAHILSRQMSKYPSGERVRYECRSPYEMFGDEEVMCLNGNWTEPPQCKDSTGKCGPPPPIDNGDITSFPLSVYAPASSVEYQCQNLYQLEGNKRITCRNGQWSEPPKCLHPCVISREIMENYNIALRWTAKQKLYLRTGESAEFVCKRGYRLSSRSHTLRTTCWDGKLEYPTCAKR

## factor H-related protein 1 (FHR-1), recombinant (from UniProt Q03591 19-330) (natural protein)
C3b (human) [1]
  percent residual FH bound to C3b at the highest FHR-1 concentration, with Sbi-III-IV WT: 0%
  percent residual FH bound to C3b at the lowest FHR-1 concentration, with Sbi-III-IV WT: 25%
C3b (human) [2]
  percent residual FH bound to C3b at the highest FHR-1 concentration: 30%
  percent residual FH bound to C3b at the lowest FHR-1 concentration: 70%
